Paper PMC4098744, “Systematic family‐wide analysis of sodium bicarbonate cotransporter NBCn1/SLC4A7 interactions with PDZ scaffold proteins” (Physiological Reports, 2014)

Biological target: T1, PSD‐95 third PDZ domain (residue 307–446) (UniProt P78352 307-446)
T1 construct: also called PSD‐95 (3); PSD‐95 (domain 3); source: spotted on a PDZ array membrane (Zhang et al. 2007)
Assay: peptide or protein array; PDZ filter overlay: 96 Class I PDZ domains spotted on a nylon membrane; overlaid with 100 nmol/L GST/NBCn1 (or GST only) in blot buffer (50 mmol/L NaCl, 2% dry milk, 0.1% Tween 20, 10 mmol/L HEPES; pH 7.4) for 1 h at room temperature; detected with HRP-conjugated anti-GST antibody; done three times
Conditions: both partners purified

T1 sequence (P78352 307-446): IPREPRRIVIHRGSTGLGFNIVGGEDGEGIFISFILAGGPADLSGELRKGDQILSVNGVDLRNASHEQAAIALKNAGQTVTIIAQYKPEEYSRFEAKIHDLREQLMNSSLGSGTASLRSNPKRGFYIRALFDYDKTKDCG

binding result: binds
B1: GST/NBCn1 fusion protein containing the C‐terminal 26 amino acids of rat NBCn1 (domain or fragment, UniProt Q9R1N3-2 1229-1254, looked up)
chain: PEKPVSVTINFEDEPSKKYMDAETSL
notes: NBCn1 (SLC4A7), rat, the C-terminal 26 amino acids; also called C‐terminal domain of NBCn1 fused to GST; source: prepared as described previously (Lee et al. 2012)
